Experimental findings from paper PMC8977143, “PDIA3/ERp57 promotes a matrix-rich secretome that stimulates fibroblast adhesion through CCN2” (American Journal of Physiology - Cell Physiology, 2022) are described below.

In the assay the target is T1, Native human platelet thrombospondin-1 (human, UniProt P07996 19-1170).
T1 construct: thrombospondin-1 (TSP1), human, native protein from platelets; also called TSP1; native human TSP1; source: bought: Cell Sciences Inc. (Cat. No. CSL19832A), native from human platelets
T1 sequence (P07996 19-1170): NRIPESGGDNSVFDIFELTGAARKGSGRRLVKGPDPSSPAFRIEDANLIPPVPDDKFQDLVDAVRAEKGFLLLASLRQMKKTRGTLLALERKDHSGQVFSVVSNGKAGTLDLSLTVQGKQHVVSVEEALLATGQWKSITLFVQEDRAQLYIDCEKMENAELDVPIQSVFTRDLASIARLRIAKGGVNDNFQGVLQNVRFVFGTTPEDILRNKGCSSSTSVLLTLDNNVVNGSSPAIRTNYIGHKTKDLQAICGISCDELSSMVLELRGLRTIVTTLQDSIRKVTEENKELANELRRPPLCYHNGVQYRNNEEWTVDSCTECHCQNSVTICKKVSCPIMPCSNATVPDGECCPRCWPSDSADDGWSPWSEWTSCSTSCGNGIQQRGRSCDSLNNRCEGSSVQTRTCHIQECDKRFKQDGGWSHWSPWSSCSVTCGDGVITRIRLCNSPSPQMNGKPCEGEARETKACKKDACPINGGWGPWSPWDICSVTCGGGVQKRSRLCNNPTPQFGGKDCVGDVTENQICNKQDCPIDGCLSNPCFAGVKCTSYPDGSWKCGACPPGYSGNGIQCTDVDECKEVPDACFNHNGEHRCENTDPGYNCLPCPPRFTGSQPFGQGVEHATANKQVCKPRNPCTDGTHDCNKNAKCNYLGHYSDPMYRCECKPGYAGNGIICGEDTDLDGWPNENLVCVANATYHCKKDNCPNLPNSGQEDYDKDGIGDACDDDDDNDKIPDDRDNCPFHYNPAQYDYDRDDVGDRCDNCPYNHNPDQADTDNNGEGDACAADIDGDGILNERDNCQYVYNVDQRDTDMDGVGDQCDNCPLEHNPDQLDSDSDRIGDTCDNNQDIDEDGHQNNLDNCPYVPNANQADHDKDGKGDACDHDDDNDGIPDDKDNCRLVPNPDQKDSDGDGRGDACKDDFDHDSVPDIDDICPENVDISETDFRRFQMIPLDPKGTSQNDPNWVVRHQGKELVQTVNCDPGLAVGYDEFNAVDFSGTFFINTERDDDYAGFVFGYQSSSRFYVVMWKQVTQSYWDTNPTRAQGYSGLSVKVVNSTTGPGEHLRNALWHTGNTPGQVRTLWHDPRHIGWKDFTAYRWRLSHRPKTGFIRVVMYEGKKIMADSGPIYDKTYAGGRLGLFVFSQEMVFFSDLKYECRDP
The experiment in a line: ELISA; solid-phase binding: PDIA3/ERp57 or CCN2 coated at various concentrations on Immulon 2Hb wells in TBS with 2 mM CaCl2 and 15 µM ZnSO4, 16 h at 4°C; blocked with 5% BSA; 50 µg/mL (388 µM as printed) native human TSP1 added for 1 h at room temperature; detected with anti-TSP1 (C9) and anti-mouse-IgG-HRP, absorbance at 450 nm. The conditions noted are these: both partners purified. (In general: ELISA stands for enzyme-linked immunosorbent assay.)

B1: Recombinant human PDIA3/ERp57 (enzyme, UniProt P30101 25-505, looked up)
chain: SDVLELTDDNFESRISDTGSAGLMLVEFFAPWCGHCKRLAPEYEAAATRLKGIVPLAKVDCTANTNTCNKYGVSGYPTLKIFRDGEEAGAYDGPRTADGIVSHLKKQAGPASVPLRTEEEFKKFISDKDASIVGFFDDSFSEAHSEFLKAASNLRDNYRFAHTNVESLVNEYDDNGEGIILFRPSHLTNKFEDKTVAYTEQKMTSGKIKKFIQENIFGICPHMTEDNKDLIQGKDLLIAYYDVDYEKNAKGSNYWRNRVMMVAKKFLDAGHKLNFAVASRKTFSHELSDFGLESTAGEIPVVAIRTAKGEKFVMQEEFSRDGKALERFLQDYFDGNLKRYLKSEPIPESNDGPVKVVVAENFDEIVNNENKDVLIEFYAPWCGHCKNLEPKYKELGEKLSKDPNIVIAKMDATANDVPSPYEVRGFPTIYFSPANKKLNPKKYEGGRELSDFISYLQREATNPPVIQEEKPKKKKKAQEDL
notes: protein disulfide isomerase A3 (PDIA3/ERp57), human, recombinant; Limits, host and tags are told only by the supplier's data sheet; source: bought: Abcam (Cat. No. ab92937)
Turning to B1, the binding result is on record as “binds”.

B2: Recombinant human CCN2 (natural protein, UniProt P29279 27-349, looked up)
chain: QNCSGPCRCPDEPAPRCPAGVSLVLDGCGCCRVCAKQLGELCTERDPCDPHKGLFCHFGSPANRKIGVCTAKDGAPCIFGGTVYRSGESFQSSCKYQCTCLDGAVGCMPLCSMDVRLPSPDCPFPRRVKLPGKCCEEWVCDEPKDQTVVGPALAAYRLEDTFGPDPTMIRANCLVQTTEWSACSKTCGMGISTRVTNDNASCRLEKQSRLCMVRPCEADLEENIKKGKKCIRTPKISKPIKFELSGCTSMKTYRAKFCGVCTDGRCCTPHRTTTLPVEFKCPDGEVMKKNMMFIKTCACHYNCPGDNDIFESLYYRKMYGDMA
notes: cell communication network 2 (CCN2/CTGF), human, recombinant; Limits, host and tags are told only by the supplier's data sheet; also called cell communication network 2; CTGF; source: bought: R&D (Cat. No. 9190-CC-050)
Take B2: the binding result is on record as “binds”.
